From patent US20100021899 come the findings set out here.

In the data set the target is alpha-PrP (prion protein, alpha form) (UniProt P04156). In words: SPR. As to conditions: PBS pH 7.0, room temperature.

Sequence “GTTCGGCACTTGGGCCCTTTTCTGTGTCTTTCTGTGCCCTTAGATAGTATGTGCAATCA [CaAp-3]” had an equilibrium dissociation constant (Kd) of 116 nM.
